# Data as given in PMC2649420 (The Journal of biological chemistry, 2008).
# B1: C3a anaphylatoxin (domain or fragment)
# chain: not shown
# Biological target: Sbi-III-IV (amino acids 150-266), domains III and IV of Sbi (S. aureus strain Mu50, UniProt Q99RL2 150-266)
# Assay: SPR
binder,measurement,value
B1,Kd,19.8 µM
